From US20120321614A1 (Amgen, published 2012) come the findings set out here.

Substitutions are numbered along the chain they refer to. Numbers in names are those of the source.

B1: anti-c-Met monoclonal antibody 8.70.2 (antibody, V domains shown)
VH: QLQLQESGPGLVKPSETLSLTCTVSGGSISSSSYYGGWIRQPPGKGLDWIGSIYYSGNTYYNPSLKSRVTISVDTSKNQFSLKLSSVTAADTAVYYCARHSWDYFDYWDQGTLVTVSS
VL: DIQMTQSPSSVSASVGDRVTITCRASQGISSWLAWYQQKPGKAPKLLIYAASSLQSGVPSRFSGSGSGTDFTLTISSLQSEDFATYYCQQANSFPITFGPGTKVEIKR
notes: Human IgG2 kappa; also called hybridoma 8.70.2 (LN 15885); PTA-5028
B2: anti-c-Met monoclonal antibody 8.90.3 (antibody, V domains shown)
VH: EVQLVESGGGLVQPGGSLRLSCAASGFTFSRYSMNWVRQAPGKGLEWVSYISSRSSTIYYADSVKGRFTMSRDNAKNSLYMQMNSLRDEDTAVYYCGYGDYDYFDYWGQGTLVTVSS
VL: B1 VL with T20I, Q55K, L73V, S80P, A91S, F94L, I96W, P100Q
notes: Human IgG2 kappa
B3: anti-c-Met monoclonal antibody 13.3.2 (antibody, human IgG2, kappa, V domains shown)
VH: QVQLVQSGAEVKKPGASVKVSCEASGYTFTSYGFSWVRQAPGQGLEWMGWISASNGNTYYAQKLQGRVTMTTDTSTSSAYMELRSLRSDDTAVYYCARVYADYADYWGQGTLVTVSS
VL: B1 VL with S30N, S31T, Q55K, T69A, S80P, I96L, P100G
notes: Human IgG2 kappa from XenoMouse hybridoma; The variable positions X2, X4, X6, X8 correspond to positions 42, 97, 14 (heavy) and 91 (light), where position one is the N-terminal amino acid; these numbers may not count on the entry with its leader; also called PTA-5026
B4: anti-c-Met monoclonal antibody 13.3.2L-A91T, H-E42K, S97T (antibody, human IgG2, kappa, V domains shown)
VH: B3 VH with E23K, S78T
VL: B1 VL with S30N, S31T, Q55K, S80P, I96L, P100G
notes: positions 42, 97, 14 and 91 count from the N-terminal amino acid and may not count on the entry with its leader
B5: anti-c-Met monoclonal antibody 9.1.2 (antibody, V domains shown)
VH: QVQLQESGPGLVKPSQTLSLTCTVSGGSISSGGYYWSWIRQHPGKGLEWIGYIYYSGSTYYNPSLKSRVTISVDTSKNQFSLKLSSVTAADTAVYYCARDGPLGYCSSTSCPVTGEYYYYGMDVWGQGTTVTVSS
VL: EIVLTQSPGTLSLSPGERATLSCRASQSVSNNYLAWYQQKPGQAPRLLIFGASSRATGIPDRFSGSGSGTDFTLTISRLEPEDFAVYYCQQYDISPMYSFGQGTKLEMKR
notes: Human IgG2 kappa; also called hybridoma 9.1.2 (LN 15884); PTA-5027

T2 sequence (P08581 25-932): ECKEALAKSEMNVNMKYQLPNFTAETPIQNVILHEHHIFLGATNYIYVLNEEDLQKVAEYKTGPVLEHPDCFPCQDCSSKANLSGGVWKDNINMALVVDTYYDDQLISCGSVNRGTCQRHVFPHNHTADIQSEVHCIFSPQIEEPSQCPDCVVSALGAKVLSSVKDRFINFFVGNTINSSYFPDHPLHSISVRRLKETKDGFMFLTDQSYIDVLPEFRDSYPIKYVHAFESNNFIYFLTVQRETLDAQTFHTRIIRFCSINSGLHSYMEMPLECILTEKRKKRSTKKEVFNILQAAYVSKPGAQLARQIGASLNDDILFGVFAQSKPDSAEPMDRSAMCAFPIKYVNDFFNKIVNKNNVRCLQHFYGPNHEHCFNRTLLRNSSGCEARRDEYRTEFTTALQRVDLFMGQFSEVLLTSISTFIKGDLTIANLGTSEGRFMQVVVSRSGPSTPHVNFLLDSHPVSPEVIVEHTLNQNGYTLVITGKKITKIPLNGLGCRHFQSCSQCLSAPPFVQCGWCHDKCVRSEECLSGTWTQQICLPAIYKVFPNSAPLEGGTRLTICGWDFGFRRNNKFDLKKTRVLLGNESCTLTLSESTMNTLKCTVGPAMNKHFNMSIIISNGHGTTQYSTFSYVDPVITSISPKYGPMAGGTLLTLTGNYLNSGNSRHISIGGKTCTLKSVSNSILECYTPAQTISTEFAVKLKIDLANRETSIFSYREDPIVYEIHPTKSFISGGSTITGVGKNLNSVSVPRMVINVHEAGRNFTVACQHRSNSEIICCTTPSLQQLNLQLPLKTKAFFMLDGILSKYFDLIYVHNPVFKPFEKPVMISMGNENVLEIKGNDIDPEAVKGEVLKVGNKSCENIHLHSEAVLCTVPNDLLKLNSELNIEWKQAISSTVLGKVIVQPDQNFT

For one experiment, the target named is T1, c-Met expressed on the surface of human A549 lung carcinoma cells (human, UniProt P08581 25-1390). Description: cell-based or functional assay.
T1 sequence (P08581 25-1390): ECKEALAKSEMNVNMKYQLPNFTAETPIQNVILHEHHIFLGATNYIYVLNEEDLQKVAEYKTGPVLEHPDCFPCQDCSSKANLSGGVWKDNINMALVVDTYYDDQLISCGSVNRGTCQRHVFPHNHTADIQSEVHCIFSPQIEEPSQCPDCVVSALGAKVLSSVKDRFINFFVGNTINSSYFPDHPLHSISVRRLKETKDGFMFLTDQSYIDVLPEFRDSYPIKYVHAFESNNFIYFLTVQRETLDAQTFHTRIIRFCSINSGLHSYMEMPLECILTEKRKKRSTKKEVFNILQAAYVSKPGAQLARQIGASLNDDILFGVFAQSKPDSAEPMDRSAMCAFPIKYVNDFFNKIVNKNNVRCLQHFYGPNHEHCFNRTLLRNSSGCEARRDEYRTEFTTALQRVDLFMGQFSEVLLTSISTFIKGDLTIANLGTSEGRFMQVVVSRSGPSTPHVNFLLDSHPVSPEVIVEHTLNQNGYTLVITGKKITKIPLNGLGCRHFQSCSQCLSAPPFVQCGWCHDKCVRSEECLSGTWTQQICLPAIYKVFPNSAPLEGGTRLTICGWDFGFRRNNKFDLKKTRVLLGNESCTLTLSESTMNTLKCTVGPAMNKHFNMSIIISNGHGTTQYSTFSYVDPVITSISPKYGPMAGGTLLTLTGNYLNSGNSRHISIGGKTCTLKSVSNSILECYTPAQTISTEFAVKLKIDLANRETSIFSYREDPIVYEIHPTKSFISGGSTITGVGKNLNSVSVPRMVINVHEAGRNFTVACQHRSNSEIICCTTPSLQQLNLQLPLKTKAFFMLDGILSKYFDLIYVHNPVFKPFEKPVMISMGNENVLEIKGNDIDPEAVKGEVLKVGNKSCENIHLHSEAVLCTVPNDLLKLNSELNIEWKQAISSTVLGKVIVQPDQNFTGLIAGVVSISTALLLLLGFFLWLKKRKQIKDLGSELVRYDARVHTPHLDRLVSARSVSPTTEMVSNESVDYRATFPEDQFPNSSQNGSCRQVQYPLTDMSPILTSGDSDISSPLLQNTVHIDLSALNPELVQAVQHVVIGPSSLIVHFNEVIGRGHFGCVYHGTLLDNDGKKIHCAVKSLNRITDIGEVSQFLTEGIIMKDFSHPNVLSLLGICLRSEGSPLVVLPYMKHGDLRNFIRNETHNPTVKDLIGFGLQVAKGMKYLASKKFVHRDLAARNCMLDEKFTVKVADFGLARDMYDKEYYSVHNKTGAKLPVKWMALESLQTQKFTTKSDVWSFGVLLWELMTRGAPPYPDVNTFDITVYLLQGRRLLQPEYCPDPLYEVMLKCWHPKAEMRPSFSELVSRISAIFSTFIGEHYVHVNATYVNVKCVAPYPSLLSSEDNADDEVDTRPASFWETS
As for B1, the “Agonist Activity [maximum fold stimulation]” value was 2.5 fold stimulation (maximum); the “Cellular Met Levels [% loss at 1.0 µg/ml]” value came to 11 % loss at 1.0 µg/ml; the “Cellular pTyr Assay [IC50, µg/ml]” value amounted to 0.143 µg/ml; the “Soft Agar Growth [IC50, µg/ml]” value came out at 25 µg/mL. Also, the “Tubular Morphogenesis Agonism [fold stimulation at 50 µg/ml]” value is 8.2 fold stimulation at 50 µg/ml and the “Tubular Morphogenesis Antagonism [% inhibition at 1 µg/ml]” value is 25 % inhibition at 1 µg/ml.

For the molecule B2, the “Agonist Activity [maximum fold stimulation]” value was 2.3 fold stimulation (maximum); the “Cellular Met Levels [% loss at 1.0 µg/ml]” value was determined as 17.5 % loss at 1.0 µg/ml; the “Cellular pTyr Assay [IC50, µg/ml]” value is 0.086 µg/ml; the “Soft Agar Growth [IC50, µg/ml]” value was 10.5 µg/mL. In addition, the “Tubular Morphogenesis Agonism [fold stimulation at 50 µg/ml]” value is 2.5 fold stimulation at 50 µg/ml and the “Tubular Morphogenesis Antagonism [% inhibition at 1 µg/ml]” value was 61 % inhibition at 1 µg/ml.

For B3, the “Agonist Activity [maximum fold stimulation]” value is 2.7 fold stimulation (maximum); the “Cellular pTyr Assay [IC50, µg/ml]” value was 0.033 µg/ml; the “Soft Agar Growth [IC50, µg/ml]” value was 8.5 µg/mL.

For the molecule B4, the “Agonist Activity [maximum fold stimulation]” value is 2.5 fold stimulation (maximum); the “Cellular Met Levels [% loss at 1.0 µg/ml]” value is 28.5 % loss at 1.0 µg/ml; the “Cellular pTyr Assay [IC50, µg/ml]” value stood at 0.032 µg/ml.

In the case of B5, the “Agonist Activity [maximum fold stimulation]” value is 6.5 fold stimulation (maximum); the “Cellular Met Levels [% loss at 1.0 µg/ml]” value stood at 46.9 % loss at 1.0 µg/ml; the “Cellular pTyr Assay [IC50, µg/ml]” value turned out to be 0.033 µg/ml; the “Soft Agar Growth [IC50, µg/ml]” value is 5.5 µg/mL. Moreover, the “Tubular Morphogenesis Agonism [fold stimulation at 50 µg/ml]” value was 2.2 fold stimulation at 50 µg/ml and the “Tubular Morphogenesis Antagonism [% inhibition at 1 µg/ml]” value was determined as 84 % inhibition at 1 µg/ml.

Another experiment addresses T2, c-Met ECD/Fc (R&D Systems #358 MT), human (human, UniProt P08581 25-932).
T2 construct: extracellular domain; Bought fusion protein; also called c-Met ECD-Fc (human); human Met ECD-Fc; not shown: Fc part of the bought fusion protein
Description: ELISA, inhibition of HGF binding to plate-coated c-Met ECD/Fc.
Consider B1, for which the IC50 came to 0.115 µg/mL.

Consider B2, for which the IC50 is 0.11 µg/mL.

B3 came in with an IC50 of 0.09 µg/mL. This IC50 and that of the molecule before are within 1.5-fold of each other.

B4 showed an IC50 of 0.127 µg/mL.

B5 returned a 50% inhibitory concentration (IC50) of 0.093 µg/mL.

Another experiment deals with T2, c-Met ECD/Fc (R&D Systems #358 MT), …. Description: SPR (BIACORE 3000), human c-Met ECD-Fc immobilized, antibody injected.
Description: (§1) Experiments were performed in a BIACORE™ 3000 instrument at 25° C. in Dulbecco's phosphate buffered saline containing 0.0005% Tween-20. Protein concentrations were obtained from sedimentation velocity experiments or by measuring the wavelength of the sample at 280 nm using theoretical extinction coefficients derived from amino acid sequences. For experiments measuring the binding of antibody to immobilized antigens, 220 RU (resonance units) of c-Met ECD-Fc (human or cynomologus) was immobilized on a B1 chip (BIACORE™) by standard direct amine coupling procedures. […] For each concentration, samples were injected in duplicate at 5 μl/min flow for 4 min. The dissociation was monitored for 2000 seconds. The data were fit globally to a simple 1:1 binding model using BIACORE™ Biavel software. In addition, to determine the koff independent of any potential error in the active concentration or fitting model, the dissociation data were fit globally and independently from association data to a simple dissociation model.
Regarding B1, the off-rate constant (koff) was determined as 6.1e-05 s⁻¹.

In turn, B2 yielded a koff of 0.00015 s⁻¹.

In the case of B3, the koff was 0.00015 s⁻¹.

In turn, B4 came in with a koff of 0.00018 s⁻¹.

B5 registered a koff of 6.8e-05 s⁻¹.

In the next experiment the target is T1, c-Met expressed on the surface of human …. Description: flow cytometry on human A549 cells, half-maximal binding at equilibrium.
Description: (§2) The binding affinity of purified antibodies for c-Met expressed on the surface of human A549 lung carcinoma cells and cynomolgus kidney cells was determined by flow cytometry using the BD™ Biosciences LSR flow cytometer according to manufacturer's protocols.
(§3) Cells grown in culture were washed with PBS, briefly incubated in the presence of 0.25% trypsin-EDTA (Invitrogen) and collected. The collected cells were washed in PBS wash buffer containing 0.025% sodium azide and 2% heat inactivated serum, pelleted and 5×10⁵ cells and resuspended in 500 μl of the same buffer. The time required to achieve equilibrium binding at room temperature for each antibody was determined independently to be between six and eight hours by incubating subsaturating concentrations of each antibody with cells. […] Each antibody was incubated with detached cells for 6 to 8 hours at room temperature depending on the time required to reach equilibrium. Cells were washed, resuspended and incubated in 500 μl of a 1:500 dilution of biotinylated mouse anti-human IgG (Jackson Labs) in PBS wash buffer for 45 minutes on ice. Next, cells were washed, resuspended and incubated with 10 μg/ml streptavidin R-phycoerythrin conjugate (Caltag) in 200 μl PBS wash buffer for 15 min on ice protected from light. Cells were washed and signal was detected with a BD Biosciences LSR flow cytometer according to manufacturer's protocols.
B1 registered a Kd of 0.0407 nM. That is a picomolar value.

B2: the Kd worked out at 0.026 nM.

B3 had a Kd of 0.0393 nM.

For B4, the affinity, expressed as Kd, was 0.056 nM. This Kd and that of the molecule before are within 1.5-fold of each other.

B5 yielded a Kd of 0.169 nM.

For a further experiment, the target named is T3, c-Met ECD-Fc (cynomologus) (cynomologus, UniProt A0A2K5UM36 25-932).
T3 construct: also called cynomologus c-Met ECD-Fc
T3 sequence (A0A2K5UM36 entry or part of it limits assumed): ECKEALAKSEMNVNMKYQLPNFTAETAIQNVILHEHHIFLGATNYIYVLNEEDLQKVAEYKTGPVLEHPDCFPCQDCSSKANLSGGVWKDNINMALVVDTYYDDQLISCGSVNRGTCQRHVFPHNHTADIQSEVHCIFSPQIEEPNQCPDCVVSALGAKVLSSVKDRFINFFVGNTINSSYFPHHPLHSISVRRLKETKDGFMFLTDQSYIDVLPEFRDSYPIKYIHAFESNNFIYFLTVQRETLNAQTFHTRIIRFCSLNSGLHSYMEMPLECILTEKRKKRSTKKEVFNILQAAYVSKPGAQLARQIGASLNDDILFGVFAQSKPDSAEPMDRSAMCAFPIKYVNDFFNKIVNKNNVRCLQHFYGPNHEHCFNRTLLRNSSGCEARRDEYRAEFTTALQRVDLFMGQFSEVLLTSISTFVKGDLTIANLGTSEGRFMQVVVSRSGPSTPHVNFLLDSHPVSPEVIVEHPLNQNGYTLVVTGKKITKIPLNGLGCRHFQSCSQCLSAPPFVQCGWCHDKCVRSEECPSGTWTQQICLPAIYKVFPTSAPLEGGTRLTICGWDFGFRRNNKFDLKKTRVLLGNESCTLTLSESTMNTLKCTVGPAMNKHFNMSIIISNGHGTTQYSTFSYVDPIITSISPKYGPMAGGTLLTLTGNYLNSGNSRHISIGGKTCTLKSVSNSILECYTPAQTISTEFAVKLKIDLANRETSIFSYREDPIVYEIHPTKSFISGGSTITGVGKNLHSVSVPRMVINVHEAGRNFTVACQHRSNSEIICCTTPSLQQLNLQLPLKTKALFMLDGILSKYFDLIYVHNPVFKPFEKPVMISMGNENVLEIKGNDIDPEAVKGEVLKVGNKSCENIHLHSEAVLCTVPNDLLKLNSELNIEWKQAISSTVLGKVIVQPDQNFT
Description: SPR (BIACORE 3000), cynomologus c-Met ECD-Fc immobilized, antibody injected.
Description: as §1
Molecule B1 gave a koff of 6.5e-05 s⁻¹.

Consider B2, for which the koff was determined as 0.00025 s⁻¹.

Molecule B3 displayed a koff of 0.00029 s⁻¹.

The molecule B4 displayed a koff of 0.0004 s⁻¹.

Molecule B5 came in with a koff of 9.8e-05 s⁻¹.

For the next experiment, the target named is T4, c-Met expressed on the surface of cynomolgus kidney cells (cynomolgus, UniProt A0A2K5UM36 25-1381).
T4 construct: also called cynomologus c-Met expressed on the cell surface
T4 sequence (A0A2K5UM36 entry or part of it limits assumed): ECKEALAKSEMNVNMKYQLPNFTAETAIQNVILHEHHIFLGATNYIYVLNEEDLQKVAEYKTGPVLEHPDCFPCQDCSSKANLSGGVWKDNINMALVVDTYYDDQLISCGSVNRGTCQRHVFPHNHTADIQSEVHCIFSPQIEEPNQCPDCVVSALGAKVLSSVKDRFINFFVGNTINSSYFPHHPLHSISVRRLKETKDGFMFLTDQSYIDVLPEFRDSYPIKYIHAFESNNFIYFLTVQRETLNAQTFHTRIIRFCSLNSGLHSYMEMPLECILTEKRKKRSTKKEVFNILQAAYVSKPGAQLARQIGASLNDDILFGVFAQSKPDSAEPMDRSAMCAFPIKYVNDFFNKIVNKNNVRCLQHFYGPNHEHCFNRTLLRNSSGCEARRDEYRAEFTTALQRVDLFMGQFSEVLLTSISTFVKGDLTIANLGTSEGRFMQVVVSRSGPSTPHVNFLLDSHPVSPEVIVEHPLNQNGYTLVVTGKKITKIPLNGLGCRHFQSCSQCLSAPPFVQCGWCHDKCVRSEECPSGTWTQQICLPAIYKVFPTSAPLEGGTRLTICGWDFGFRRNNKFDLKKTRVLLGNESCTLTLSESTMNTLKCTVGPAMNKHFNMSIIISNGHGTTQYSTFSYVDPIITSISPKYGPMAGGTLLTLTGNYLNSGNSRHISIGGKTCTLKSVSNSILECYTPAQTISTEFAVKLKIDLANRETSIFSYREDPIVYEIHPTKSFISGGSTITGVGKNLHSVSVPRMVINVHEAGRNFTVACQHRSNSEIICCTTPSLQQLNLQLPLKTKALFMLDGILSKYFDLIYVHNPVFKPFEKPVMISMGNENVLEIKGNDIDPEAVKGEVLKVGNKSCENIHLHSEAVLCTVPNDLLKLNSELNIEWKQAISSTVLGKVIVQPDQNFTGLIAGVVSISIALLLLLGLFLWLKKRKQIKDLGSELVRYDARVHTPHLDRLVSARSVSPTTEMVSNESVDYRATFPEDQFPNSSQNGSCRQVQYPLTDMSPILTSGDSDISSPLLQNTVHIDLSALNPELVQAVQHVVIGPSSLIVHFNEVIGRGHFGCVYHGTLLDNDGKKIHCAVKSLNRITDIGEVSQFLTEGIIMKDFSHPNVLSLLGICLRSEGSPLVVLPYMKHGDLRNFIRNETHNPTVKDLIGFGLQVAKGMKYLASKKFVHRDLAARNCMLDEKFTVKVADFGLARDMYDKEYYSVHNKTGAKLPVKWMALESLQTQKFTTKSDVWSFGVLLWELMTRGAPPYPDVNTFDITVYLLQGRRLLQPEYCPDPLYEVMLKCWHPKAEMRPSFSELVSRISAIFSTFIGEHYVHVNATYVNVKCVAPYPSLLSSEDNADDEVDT
Description: flow cytometry on cynomolgus kidney cells, half-maximal binding at equilibrium.
Description: as §2, §3
For the molecule B1, the affinity, expressed as Kd, was 0.0553 nM.

The molecule B2 yielded a Kd of 0.393 nM.

In turn, B3 registered a Kd of 0.0486 nM.

Regarding B4, the Kd came to 0.0733 nM.

In turn, B5 had a Kd of 0.168 nM.

The target of a further experiment is T2, c-Met ECD/Fc (R&D Systems #358 MT), …. Description: SPR (BIACORE 3000), human c-Met ECD-Fc immobilized, antibody injected, 1:1 model.
Description: as §1
Molecule B1 had a Kd of 0.33 nM.

B2 yielded a Kd of 0.53 nM.

B3 showed a Kd of 0.22 nM.

Molecule B4 had a Kd of 0.2 nM.

In turn, B5 displayed a Kd of 0.82 nM. This Kd lies about 4.1-fold higher than the previous one.

The next experiment addresses T3, c-Met ECD-Fc (cynomologus). Description: SPR (BIACORE 3000), cynomologus c-Met ECD-Fc immobilized, antibody injected, 1:1 model.
Description: as §1
In turn, B1 gave a Kd of 0.32 nM.

The molecule B2 had a Kd of 1.22 nM.

The molecule B3 came in with a Kd of 0.6 nM.

As for B4, the Kd came to 0.61 nM. This Kd and that of the molecule before are within 1.5-fold of each other.

Take B5: the Kd was found to be 1.1 nM.

For another experiment, the target named is T5, Insulin-like Growth Factor 1 Receptor (IGF-1R) (UniProt P08069 31-1367, limits assumed).
T5 construct: also called IGF-IR
Description: IGF-1R Cell ELISA: IGF-1R tyrosine phosphorylation after IGF-1, % of control. Indirect readout; the legend says that the antibody does not bind IGF-1R.
For the molecule B3, the binding result is “no binding (tested: 1000 µg/ml)”.

Take B5: the binding result is “no binding (tested: 1000 µg/ml)”.

The next experiment deals with T2, c-Met ECD/Fc (R&D Systems #358 MT), …. Description: Ligand Binding ELISA (competition): plate coated with c-Met ECD/Fc, antibody concentration varied, then HGF added and bound HGF detected; readout is % inhibition of HGF binding.
Description: The wells were washed four times with Tris-buffered saline (pH=8.0) with 0.05% TWEEN-20 (TBS-T). Next, 200 μl/well of blocking buffer (3% bovine serum albumin (BSA) in TBS-T) was added for 60 minutes (min) at room temperature to block non-specific binding sites. The wells were washed 4 times with 300 μl/well TBS-T. Next, 100 μl of Dulbecco's Modified Eagle medium (DMEM) supplemented with 10% FBS containing anti-c-Met antibodies from hybridoma supernatants or purified antibodies in either PBS or 20 mM sodium acetate (pH=5.5), 140 mM NaCl at various concentrations (e.g., 10, 3, 1, 0.3, 0.1, 0.03, and 0.01 μg/ml, based on human IgG2 concentrations in the supernatants) was added to each well. Anti-c-Met antibody was not added to the control wells of the experiment. The samples were mixed for 4 hours (hrs) at room temperature. […] The samples were mixed for 15 minutes at room temperature. […] The solutions were incubated in the wells for 30 min at room temperature. […] The samples were incubated for 30 min at room temperature. The wells were washed 5 times with TBS-T, about 300 μl/well/wash. Next, 100 μl/well of 3,3′,5,5′-tetramethylbenzidine (TMB) peroxidase substrate (Kirkegaard & Perry Laboratories) was added and developed for 1-2 min at room temperature. […] The samples were read at a wavelength of 450 nanometers (nm) on a 96-well plate reader and no background was subtracted.
As to B3, the “IC50 (read off the curve)” value is ~0.03 µg/mL.

Turning to B4, the “IC50 (read off the curve)” value is ~0.05 µg/mL.
